# Test results taken from article PMC6715736.
# Target: T1, His6-RacR (Escherichia coli JM83 (Rac prophage)) (UniProt P76062)
# T1 sequence: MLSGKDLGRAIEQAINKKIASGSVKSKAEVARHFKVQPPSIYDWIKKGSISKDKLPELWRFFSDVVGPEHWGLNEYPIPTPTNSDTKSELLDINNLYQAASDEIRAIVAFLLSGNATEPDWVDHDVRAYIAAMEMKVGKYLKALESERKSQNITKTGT
# Test: EMSA
# Details: EMSA: 10 mM Tris-HCl pH 8.0, 1 mM EDTA, 0.1 M NaCl, 0.1 mM DTT, 5% glycerol, 10 ug/mL BSA, 50 ug/mL poly(dI-C), 28 C 40 min; 6% PAGE in 0.5x TBE
sequence,measurement,value
GGTTCATCTCGGCTCCTGCTGCGGCGGTTGTCTTCGCGGATTTTGAAATAGAGATTTGTCAGATACGTCATTACGGCAATGATGATACCCACCAGCACGCCGATAGCGTTCCACTGCTCGGGGCTGTAGGCATTCAACATGCCGTTTAGGATGCTCCCGGCTGAAGCGCCATAGGCAGCACCAGTGGTTAGTTTGTCCATGCGATACATACTCTCACCTCGCTTTGTGCGAGTGCTGTTGCT (double strand) [lysN* probe],binding,binds
